The DeepSol protein solubility set

Test: soluble on expression in E. coli; label from the status in PepcDB or PDB records

Row | Sequence | soluble on expression in E. coli
1 | MGSDKIHHHHHHANDETIEINYGESISLSAVAGKTTRTGSEATTTNSIRNFHVLAFTQGATYMDCDVRKQGNVWSYGDTKFWPETDVDFYSYSPMNTQNGNVSIKVEGDKKIANYNVPGDEDLLYALNQAEKKNEHEGERPVMVNFRHALSQIVFRIRNTSSNLTVFVDAVKVEGIEKQGTFFWPTLSTTTQWQGTEKDTETDNSWGRWNIVYNKENAKQNNYAAEIIPIMEQGFVGSIDASVRDLTVKTDNGYKGLLLLPQTLNPWITKTGGTDENPEYKITGTARVLVKCKLVDTVSNVQLWPNTNSHEETTWVGVSLVGEPKDINGKTEQVWKQGKRYVYTLIFGEGGGFNPDPDPENPDPEPVLVPITFAVTVDDFVEYPQDLDASVPNSNSGQ | not soluble
2 | MGHHHHHHSHMLQPPKIVAELSANHNQDLNLAKESLHAIKESGADFVKLQTYTPSCMTLNSKEDPFIIQGTLWDKENLYELYQKASTPLEWHAELFELARKLDLGIFSSPFSSQALELLESLNCPMYKIASFEIVDLDLIEKAARTQKPIILSSGIATHTELQDAISLCRRVNNFDITLLKCVSAYPSKIEDANLLSMVKLGEIFGVKFGLSDHTIGSLCPILATTLGASMIEKHFILNKSLQTPDSAFSMDFNGFKSMVEAIKQSVLALGEEEPRINPKTLEKRRFFARSLFVIKDIQKGEALTENNIKALRPNLGLHPKFYKEILGQKASKFLKANTPLSADDIERSL | soluble
3 | MSLGMHGAAHIVWDWNGTLFHDNAAIIGATNAAFAELGLEPITLERYRALYCVPVPKFYERLIGRLPTDAEWEIMDEIFHRYYAEHRVGCGLTEGAAELLVEWQSAGHSQSILSMYVHDELVPLVRGFGIEPHFIRVDGRTGPSGGSKAEHMVRHIGALAGVAGVDPARTVVIGDAADDAVAALHVGAQAVLYTGGSHSRASLEGVGVPVVDTLAEAVEEAGRLAAEGHHHHHH | soluble
4 | MAHHHHHHMIKRYLKIYPSIYFTKHVYTAPEIDGSKDLLKKDYVFNQYVNKKEIFLNNKLKKGNCENEIKRIYYFKLWNAMVEHNFTLFENIIQQYLNEGYKYDEVIYSIMTHAYILNHKKKNENAYLVIEEMKRAFMHPIIIKINERMINCFLELELIFCEPSKSLWINVCRFIWESSIKLNRERRRKLKEKLNLLEPNQVLKLTKEDVKKLVKKEYEETLLSMMDTLSLDGEDPYDHILIDRKENYMKIENQKDGNFFPSNGNELTCLNNNHIYNDHINYLKGNIENDTSENVNSFMFSILNEGKNKTTEQEINYQDDYNLNNNDYMTKITNINSDNNIMMNMENEHMYETDEKDEHYESFDDAEDFDIQLLKKYYNLK | not soluble
5 | MSLEKFVVQDIQIDGLQRVALGAALLKMPVRVGDSVDSQDVANIIKALYSSGNFEDVKVLRDGNTLMVQVKERPTIASVSFSGNKAIKEEQLKQNLEASSIRVGEALDRTTLSNIEKGLEDFYYSVGKYNATVKAVVTPLPRNRADLKFVFTEGVSAKIQQINFIGNQVFSDEELLSRFNLNVDVAWWNFLADDKYKKQVLAGDIEALRTYYLDRGYLKFQVDSTQVAISPDKKGVYITLNLNEGEPYTVSKVQFRGELMGKEAEFTSLIPFEIGETYNGSAVTRLEESVKKVLGESGYAYPQVRTIPEFDDEKQQVSLVVHVEAGKRVYVRDIRFVGNNSTRDEVLRREMRQMEGSWLNSKDIETGKTRLNRLGFFETVEVQTVRVPGSEDQVDLVYSVKEANSGNVNFGVGYGTESGVSFQVGLQQDNFLGSGNRVGVNAMINDYQKNLTLEYRDPYWNLDGVSLGGKVFYNQFEASEAGIVDYTNESYGTSLTWGFPFDELNRFEFGIGYTHNKIGNLTPYLQVENFLAAQASNIDSGGNLLTDDFDINLSWTRNNLNNSYFPTAGNHQRAFYKMTVPGSDAQYFKLQYDVRQYFPLTKKHEFTLLLRGRLGYGNGYGQTDGKDNLFPFYENFYAGGFTSLRGFGSNSAGPKAVYRDYSGSNNGSDTATDDSVGGNAIALASVELIVPTPFASEEARNQIRTSIFYDMASVWDTEFDYRGKADYGNQYYYDYSDPTNYRSSYGVALQWVSPMGPLVFSLAKPIKKYEGDDEEFFTFTIGRTFEGHHHHHH | not soluble
6 | GSKGNIRVIARVRPVTKEDGEGPEATNAVTFDADDDSIIHLLHKGKPVSFELDKVFSPQASQQDVFQEVQALVTSCIDGFNVCIFAYGQTGAGKTYTMEGTAENPGINQRALQLLFSEVQEKASDWEYTITVSAAEIYNEVLRDLLGKEPQEKLEIRLCPDGSGQLYVPGLTEFQVQSVDDINKVFEFGHTNRTTEFTNLNEHSSRSHALLIVTVRGVDCSTGLRTTGKLNLVDLAGSERVGKSGAEGSRLREAQHINKSLSALGDVIAALRSRQGHVPFRNSKLTYLLQDSLSGDSKTLMVVQVSPVEKNTSETLYSLKFAERVRSVEL | soluble
7 | GHMYETIRYEVKGQVAWLTLNRPDQLNAFTEQMNAEVTKALKQAGADPNVRCVVITGAGRAFCAGEDLSGVTEEMDHGDVLRSRYAPMMKALHHLEKPVVAAVNGAAAGAGMSLALACDFRLLSEKASFAPAFIHVGLVPDAGHLYYLPRLVGRAKALELAVLGEKVTAEEAAALGLATKVIPLSDWEEEVKQFAERLSAMPTKAIGLIKRLLRESEETTFDRYLEREAECQRIAGLTSDHREGVKAFFEKRKPLFQGN | soluble
8 | METYLEIETLIKRIFNSFRHEVEAVLDKRLSGSEYRVLSLISSGLTKTSDLAKTLDVSASHITAITDTLVEEKLITRHRSEVDRRIIELKLTSNAEEFVKEIDKKKKEMIVKRFAVFSEYEQAEFRKLLKKLADGSQSNK | not soluble
9 | MDVSEGGVTVSVPTASGGGEGAADDVFFNATQELNRDLTVATLAAFREREPRAASYLDAMTASGIRGVRAANAGWDVTMADVDADAVELATSNLARNGLDGEVVARDANSLLHDHDRVLDVVDIDPFGSPMPFADAAFANARNLVCVTATDTAPLCGAHFESGVRKYSATPRNTNYHAEMGLRILLGALARTAARYDVGVTPILSHVSDHYVRTYLELDHRATDANAAVEQVGHVYHCQQCLSRDHEYGLVAAPRAECPRCGGHQVLTAGPLWLGPAHEEAFAASVREQLTREMGEASQAFHLLQTIEGELHEPTHYDQHRLYSQWGEPAVGMAEFLDQLRDAGLRASRTHFGGTTFKTDGGLAEVEAAVLLEHHHHHH | soluble
10 | VDLEKFKFHARIDDDFEDSYIQLLLDAAINYVSKITGVPNDENAPPEYDLAIMILALHWYTNREVLSDRGTNQVPYGLGMLIANLRTN | not soluble
11 | MHSFLQFLRDDNPGSLEDHLNFVPSDDLKYELGMLLSSRPLYLETDELPFVSSSVLNYGIKSSVFVVSAGEHSDSVNDEISSRILMMLQRYESRLEEPVVEYLSSDDNYSFFSVTALFFMDMVRLCIKWDKNSGEFSLDE | not soluble
12 | MSLAYETFAFVYDEVMDESLYQKWLDFSNRHLPQGTQQILEMACGTGALAVDFAKSGYDVTALDLSEEMLMIASERAFEEEVPVQFVQGNMLDLSEVGQYQAITCFSDSLCYMANRQEVQQVFDEVYQALEEEGTFIFDVHSTYKIDSVFPEYSYHYQTEEFAFLWDSYAGEKEHSIEHFLTFFVKEQETDEHFVRYDELHQERTYSLDNYLRMLESAGFMNVKVYADFTDEAPTETSERWFFVCQRDEGHHHHHH | soluble
13 | MGSDKIHHHHHHAQQPVELPLWPDGAPNSNGLTGGEKEVSPHRLSNVTAPTITVYRAPQPNGMAVIMCPGGGYSRLAMDHEGHDMASWFCGQGITYVVLKYRMPNGHCEVPLSDAERAIRIVREHAGEWNIHPRKIGIMGASAGGHLASTLATHYSAASRPDFQILLYPVVTMTQSTHGGSRKELLGGNPTAEQEVLFSNELQVTSDTPQAFIVLSSDDGAVPPSNGVNYYLALQKNNVPASLHVYPTGGHGWGFRDNFKYKQQWTQELEKWLREGVVFPKETAPMLRIGKTYLGTKYVANTLDQGTEEKLVILPQTVDCLTFVEYTLAQAMGSSFADNLQKIRYRDGVIDGYTSRLHYTSDWIENGVRQGFLEDVTAQNSTQTTKLSLSYMSTHPQKYRQLADSPENVKRMAEHEKALSGKKVHWLPKGKLPDAGLPWIMDGDIIAITTNLPGLDVAHVGMAEYINGKLHLLHASSTLGKVVVSEEPLSQMLRNNKSWSGIRVVRMSHP | not soluble
14 | MAHHHHHHMAQASGCELMDFVSVLPVPPQTERRRGVLRFVGSTDFAPGLWMGIELFGTIGRNDGSVMGKSYFSCPAGQGVFVRPELVVPYMSEGEGPSGTVRKGDEFLAVVEPLRADLTRMQEELQQREAALRDAREELRNVMALHDAKSVELEREREEKSRMIMLTMTACRNNVTATTQTDEDKAVEVKDLEIHRLQQQCADLRDLCELQEDEIHRQREHADDLAQIVENLRREHEEERVRMVEKIRSLEEEITQRQKATAEDSAKADVEDMHLHAFQQQQEKEALRILKERYEQLYAERESERHEQEAKWKRATAEYEEALTQQREYKNRLLNEIRQLQHEIKDMRHSRERERVLQVPLSTLERDEYESQIYGLQWELMGVHEEMFSKRYDHFLAPVSSWNLPADVMRALSEEIMSLERVLPFTTPEKCQQSRMVLFQMHPRDAEGGTIAAAPL | not soluble
15 | MGSSHHHHHHSSGLVPRGSHMEQMHSLESSLPPEQPPTKQAIESLNLELSQEFKLAANAVTRLYRVANEKNSLTKHQGYLTCLDDILCALDSNVTADELRAWCYKRRNDILSNSQDKSLNPVKERERKLNKFSENQHRENEAHKEPFEKDSAVKYNFSFNESNGDLSNINENIAPKFRLSMPPLSVEHPPRNASRIKSWKARTINHGRGDTRNLNDITGLGHERERDRENTHYEKKPKLDSDSEVDIRSFRQDMDL | soluble
16 | MRQWTATHMAKLARKASIAVGKKGTDLPGQIARRVDHNILRKLAKQVDDIVFISGTNGKTTTSNLIGHTLKKNQINIIHNNEGANMAAGITSAFIMQSSKNTNIAIIEIDEGSIPRVLNEVTPSMMVFTNFFRDQMDRFGEIDIMVDNIAKSISNKGIKLLLNADDPFVSRLKIASHSIVYYGMKKFAHDFEQSTMNESKYCPNCGRLLQYDYIHYNQIGHYHCECGFKREEPTYEVSSFDASPFLKMIINQSEFNMKIAGDFNSYNAIAAYTVLRELGLNDDAIRKGFETYTSDNGRMQYFSKNKKEAMINLAKNPAGMNASLSVGEQIDDKKIYVISLNDNAADGRDISWIYDADFEKLATQDIEAIIVSGTRAEELQLRLKLAEVEVPIKVEKDIYKATALTMKYSSFTVAIPNYTSLTPMLEQLNRSFEGGQS | not soluble
17 | MENKHNPTSHTSHTWSELPELNPCVPLGTLLPDKSCPKTHPLADLIPPRQQQQFMHGNSWKLAPYGRSMIMRYAMQVRGQLAPTVLGINRTWKGDTCWNQIPKTSDCFHMVYKDHKLYFLNKTGSFKIFDFCGDIPQQTFEWSVKVERSQFGPPPPSNPWKVLATKLVVTVTGKVLKVEEMGGARPRTWSFRVFESMLLDQGITVLANDTGGFIRNTIYFSASHGNNTHDIYIFNLETQKTEPLHTLDSYSSSVQFYGAQWFVPSFKH | soluble
18 | MKVYLHFSPQFFANTYLIGNEITKEAVIIDPAKITEKMIHQIEKNEFNLKAVLLTHDLEHPYETGLNTILKIYSPKVYAGSCFSENVTINTLRGDGCIDVAGYSVRYFAIPAHSSYSYMFQIENMVFTGTSLSAGMIGQTSNMYAERTLRNILKTKLMCFEDNLIIMPFYGPPTSIGVERKYNASFFQDFEKKPFLEHHHHHH | soluble
19 | VGKLQKREYSHEVNDEDLRKKVHDECYARAYEVATSGTGKHERGEAFEKIVEEFKAQYTEEELAEKAEMIARYYHDVEKEAMRRAILDEGKRLDGRKTTEIRP | not soluble
20 | STGKAKPKKHTAKELQAKADAALTNRGGGKAGLADRTGKEKGGHAKYECPHCKITVPDLKTMQIHHESKHPKLTYEEPRNLHEALAAPAESSKPKPGIRGSLKK | soluble
